Assay results taken from US20160083466A1 (Regeneron, published 2016).

T1: human IL-25 expressed with a C-terminal myc-myc-hexahistidine tag (human)
T1 construct: also called human IL-25-MMH; hIL-25-MMH
T1 chain: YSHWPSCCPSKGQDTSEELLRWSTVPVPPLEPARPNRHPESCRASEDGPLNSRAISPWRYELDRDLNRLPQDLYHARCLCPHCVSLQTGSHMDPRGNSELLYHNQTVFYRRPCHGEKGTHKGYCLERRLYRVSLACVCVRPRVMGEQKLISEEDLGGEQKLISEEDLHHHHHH

T2: monkey IL-25 expressed with a C-terminal myc-myc-hexahistidine tag (M. fascicularis (cynomolgus monkey))
T2 construct: also called monkey IL-25-MMH; MfIL-25-MMH
T2 chain: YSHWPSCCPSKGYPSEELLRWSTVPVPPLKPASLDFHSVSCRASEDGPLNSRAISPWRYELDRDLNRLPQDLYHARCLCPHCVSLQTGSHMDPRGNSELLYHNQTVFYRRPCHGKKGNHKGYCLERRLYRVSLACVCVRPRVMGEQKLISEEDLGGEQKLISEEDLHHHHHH

T3: rat IL-25 expressed with a C-terminal myc-myc-hexahistidine tag (rat)
T3 construct: also called rat IL-25-MMH
T3 chain: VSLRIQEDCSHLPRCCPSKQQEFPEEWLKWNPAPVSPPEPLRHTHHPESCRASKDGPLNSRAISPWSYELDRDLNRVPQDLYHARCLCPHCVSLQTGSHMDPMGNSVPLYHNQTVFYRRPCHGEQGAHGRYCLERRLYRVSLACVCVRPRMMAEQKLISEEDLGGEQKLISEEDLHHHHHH

T4: mouse IL-25 expressed with a C-terminal myc-myc-hexahistidine tag (mouse)
T4 construct: also called mouse IL-25-MMH; mIL-25-MMH
T4 chain: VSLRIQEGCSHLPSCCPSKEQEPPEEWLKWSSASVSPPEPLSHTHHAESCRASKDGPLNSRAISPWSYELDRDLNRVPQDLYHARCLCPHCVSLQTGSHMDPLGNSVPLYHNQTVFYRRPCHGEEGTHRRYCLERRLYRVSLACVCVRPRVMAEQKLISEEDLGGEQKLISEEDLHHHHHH


Columns and labels:
[1] = target: T1, human IL-25 expressed with a C-terminal …; test: SPR Biacore, captured mAb, 37°C
Description: (§1) Equilibrium dissociation constants (KD values) for IL-25 binding to purified anti-IL-25 antibodies were determined using a real-time surface plasmon resonance biosensor assay on a Biacore 4000 instrument (GE Healthcare). […] All the IL-25 reagents were expressed with a C-terminal myc-myc-hexahistidine tag (referred to herein as “IL-25-MMH”). […] Kinetic association (kₐ) and dissociation (kd) rate constants were determined by fitting the real-time sensorgrams to a 1:1 binding model using Scrubber 2.0c curve fitting software.

[2] = target: T2, monkey IL-25 expressed with a …; test: SPR Biacore, captured mAb, 25°C;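 on 100 nM Human IL-25-MMH Bound (RU): biacore 4000 SPR with IL-25-MMH as analyte over purified anti-IL-25 antibodies, association and dissociation rates derived from fitting sensorgrams to a 1:1 binding model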;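 on 100 nM Monkey IL-25-MMH Bound (RU): Real-time surface plasmon resonance on a Biacore 4000, with IL-25-MMH binding to purified anti-IL-25 antibodies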
Description: as §1

[3] = target: T3, rat IL-25 expressed with a C-terminal …; test: SPR Biacore, captured mAb, 25°C and 37°C
Description: as §1

[4] = target: T4, mouse IL-25 expressed with a C-terminal …; test: SPR Biacore, captured mAb, 25°C and 37°C
Description: as §1

[5] = target: T1, human IL-25 expressed with a C-terminal …; test: SPR Biacore, captured mAb, 25°C;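 on 100 nM Human IL-25-MMH Bound (RU): biacore 4000 SPR with IL-25-MMH as analyte over purified anti-IL-25 antibodies, association and dissociation rates derived from fitting sensorgrams to a 1:1 binding model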;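 on 100 nM Monkey IL-25-MMH Bound (RU): Real-time surface plasmon resonance on a Biacore 4000, with IL-25-MMH binding to purified anti-IL-25 antibodies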
Description: as §1

Binder | 100 nM Human IL-25-MMH Bound (RU) [1] [RU] | Kd [1] [nM] | koff [1] [s⁻¹] | kon [1] [M⁻¹ s⁻¹] | t½ [1] [h] | 100 nM Monkey IL-25-MMH Bound (RU) [2] [RU] | Kd [2] [nM] | koff [2] [s⁻¹] | kon [2] [M⁻¹ s⁻¹] | t½ [2] [h] | binding result [3] | binding result [4] | 100 nM Human IL-25-MMH Bound (RU) [5] [RU] | Kd [5] [nM] | koff [5] [s⁻¹] | kon [5] [M⁻¹ s⁻¹] | t½ [5] [h]
H4H10861P (antibody, human IgG4, V domains shown) VH: QVQLQESGPGLVKPSETLSLTCTVSGASISNYYWSWIRQPPGKGLEWIGYIFYSGNTNYNPSLKSRVTISVDTSKNQFSLKLSSVTAADTAVYYCARVRFSDYELNWFDPWGQGTLVTVSS VL: DIVMTQSPDSLAVFLGERATINCRSSQSVFLGSNNKNYLAWYQQKPGQPPKLLIYWASSRESGVPDRFSGSGSGTDFTLTINSLQAEDVAVYYCQQYFITPLTFGGGTKVEIK | 63 | 0.0268 | 7.8e-05 | 2.91e+06 | 2.47 | 48 | 0.00454 | 1.48e-05 | 3.26e+06 | 13 | no binding (tested: 100 nM) | no binding (tested: 100 nM) | 47 | 0.0116 | 2.34e-05 | 2.01e+06 | 8.22
H2M11008N (antibody, V domains shown, also called H2aM11008N) VH: QVQLQESGPGLVKPSETLSLTCTVSGGSISSHYWSWIRQPPGKGLEWIGFIYYSGSTNFNPSLKSRVTISIDTSKNQFSLKLSSVTAADTAVYYCARHDYNDYELNYFDLWGRGTLASVSS VL: not shown | 60 | 1.08 | 0.000793 | 734000 | 0.25 |  |  |  |  |  | no binding (tested: 100 nM) | no binding (tested: 100 nM) | 48 | 0.435 | 0.00021 | 482000 | 0.917
H1M11009N (antibody, mouse IgG1, V domains shown, also called 12) VH: EVQLVESGGGLVEPGGSLRLSCVASGFTFSNAWMNWVRQAPGKGLEWVGHIERKTDGGTTDFAAPVKGRFTISRDDSKNTLYLQMNSLKTEDTAVYYCTTVGPYSVPFDYWGQGTLVTVSS VL: not shown | 30 | 21.1 | 0.00829 | 393000 | 0.0233 |  |  |  |  |  | no binding (tested: 100 nM) | no binding (tested: 100 nM) | 30 | 12.5 | 0.00304 | 242000 | 0.0667
H4H10862P (antibody, human IgG4, V domains shown) VH: QVQLQESGPGLVKPSETLSLTCTVSGGSISSYFWSWIRQAPGKGLEWIGFIDYSGSTNYNPSLKSRVTISVDTSKNQFSLKLNSVTAADTAVYYCARQEIINFELNWFDPWGQGTLVTVSS VL: not shown | 72 | 0.0879 | 0.00021 | 2.39e+06 | 0.917 | 58 | 0.0255 | 5.1e-05 | 2e+06 | 3.77 | no binding (tested: 100 nM) | no binding (tested: 100 nM) | 56 | 0.0344 | 6.49e-05 | 1.88e+06 | 2.97

Other lines, results leading:

100 nM Human IL-25-MMH Bound (RU) [1] [RU] | Kd [1] [nM] | koff [1] [s⁻¹] | kon [1] [M⁻¹ s⁻¹] | t½ [1] [h] | 100 nM Monkey IL-25-MMH Bound (RU) [2] [RU] | Kd [2] [nM] | koff [2] [s⁻¹] | kon [2] [M⁻¹ s⁻¹] | t½ [2] [h] | binding result [3] | binding result [4] | 100 nM Human IL-25-MMH Bound (RU) [5] [RU] | Kd [5] [nM] | koff [5] [s⁻¹] | kon [5] [M⁻¹ s⁻¹] | t½ [5] [h] | Binder
94 | 0.0526 | 0.000196 | 3.73e+06 | 0.983 | 78 | 0.0128 | 4.7e-05 | 3.68e+06 | 4.1 | no binding (tested: 100 nM) | no binding (tested: 100 nM) | 75 | 0.0168 | 4.51e-05 | 2.68e+06 | 4.27 | H4H10864P (antibody, human IgG4, V domains shown) VH: QVQLQESGPGLVKPSETLSLTCTVSGGSISNYFWSWIRQPPGKGLEWIGFNYNSGSTNYNPSLKSRVTISVDTSKNQFSLKLSSVTAADTAVYYCARGYNWNYEIAWFDPWGQGTLVTVSS VL: not shown
51 | 0.035 | 9.91e-05 | 2.83e+06 | 1.95 | 45 | 0.00402 | 1.18e-05 | 2.94e+06 | 16.3 | no binding (tested: 100 nM) | no binding (tested: 100 nM) | 43 | 0.0158 | 2.75e-05 | 1.74e+06 | 7.02 | H4H10900P (antibody, human IgG4, V domains shown) VH: QVQLQESGPGLVRPSETLSLICTVSGGSINSYYWSWIRQPPGKGLEWIGYIYYSGSTNYNPSLKSRVTISGDTSKNQFSLKLSSVTAADTAVYYCARGVIWNYELREFDYWGQGTLVTVSS VL: not shown
72 | 0.0529 | 0.000154 | 2.9e+06 | 1.25 | 61 | 0.0141 | 2.95e-05 | 2.09e+06 | 6.52 | no binding (tested: 100 nM) | no binding (tested: 100 nM) | 61 | 0.0264 | 4.32e-05 | 1.64e+06 | 4.47 | H4H10906P (antibody, human IgG4, V domains shown) VH: QVQLQESGPGLVKPSETLSLTCTVSGGSISSYYWSWIRQPPGKGLEWIGFIYYSGSTNYNPSLKSRVTISVDTSKNQFSLKLSSVTAADTAVYYCARHDSDYELYGMDVWGQGTTVTVSS VL: not shown
65 | 0.0651 | 0.000208 | 3.19e+06 | 0.933 | 64 | 0.0116 | 3.06e-05 | 2.63e+06 | 6.28 | no binding (tested: 100 nM) | no binding (tested: 100 nM) | 62 | 0.0254 | 5.79e-05 | 2.28e+06 | 3.32 | H4H10901P (antibody, human IgG4, V domains shown) VH: QLQLQESGPGLVRPSETLSLTCSVSSGSIRSSNYYWGWIRQPPGKGLEWIGNIYYSGNTFYNPSLKGRVTISVDTSKNQFSLKLSSVTATDTAVYYCARQGYSDYELNWFDPWGQGTLVTVSS VL: DIVMTQSPDSLVLSLGERATFNCKSSQSVLDSSNNKNYLAWYQQKPGQPPKLLIYWASTRESGVPDRFSGSGSGTDFSLTISSLQAEDVALYYCQQFYNSPWTFGQGTKVEIK
65 | 0.0508 | 7.75e-05 | 1.53e+06 | 2.48 | 57 | ≤ 0.00871 | ≤ 1e-05 | 1.15e+06 | 19.2 | no binding (tested: 100 nM) | no binding (tested: 100 nM) | 54 | 0.0192 | 1.73e-05 | 897000 | 11.2 | H4H10903P (antibody, human IgG4, V domains shown) VH: QVQLQESGPGLVKPSETLSLTCTVSGGSINSYSWTWIRQPPGKGLEWIGNIYNSENTNYNPSLKSRVTISVDTSKSQVSLKLNSVTAADTAVYYCARTYNWNYEIGAMGVWGQGTTVTVSS VL: not shown
